Consider 1 substance from PMC3034019.

The target in the test is Oregon-Green-labelled actin monomers (OG-actin) (UniProt P68135). Briefly: stopped-flow fluorescence kinetics.

What is called kon is the second-order rate constant of association. Substance “EVH2 domain of human VASP (hEVH2) (domain or fragment)” registered an association rate constant (kon) of 1.2e+07 to 1.8e+07 M⁻¹ s⁻¹.
